Consider two molecules from patent publication US12241090B2, “Methods and systems for converting precursor cells into gastric tissues through directed differentiation” (CHILDREN'S HOSPITAL MEDICAL CENTER, priority 2014, dated 2025).

Assay [1] relates to hPSC-derived definitive endoderm (DE) cultures. The assay can be described thus: Endoderm patterning of hPSC-derived DE cultures with growth factors/antagonists, qPCR and immunofluorescence. The format is cell-based, human.
Protocol: Following DE induction, cells were treated for three days with growth factors/antagonists in RPMI 1640 with 2.0% dFBS. […] RA (2 μM; Sigma Aldrich) is added on the final day. Three-dimensional growth and antral specification. Posterior foregut spheroids were embedded in Matrigel (BD Biosciences) as previously described^10, 12 and subsequently grown in Advanced DMEM/F12 (Invitrogen) supplemented with N2 (Invitrogen), B27 (Invitrogen), L-glutamine, 10 μM HEPES, penicillin/streptomycin, and EGF (100 ng ml^−1; R&D Systems). For antral specification, RA and noggin were added for the first three days of three-dimensional growth. For endocrine cell specification, the EGF concentration is lowered to 10 ng ml^−1 at day 30.
The media was changed every day.
All tissues were fixed in 4% paraformaldehyde for either one hour at room temperature for frozen processing or overnight at 4° C. for paraffin processing. For frozen sections, tissue was protected in 30% sucrose overnight at 4° C., then embedded in OCT (Tissue-Tek), and cut at 10 μm. For paraffin sections, tissue was processed through a graded ethanol series, followed by xylene, and then embedded in paraffin and cut at 7 μm. Tissue culture cells were fixed for 15 minutes at room temperature and stained directly. For staining, frozen slides were thawed to room temperature and rehydrated in PBS, while paraffin slides were deparaffinized and subjected to antigen retrieval. Slides were blocked in 5% normal donkey serum (Jackson Immuno Research) in PBS plus 0.5% Triton-X for 30 minutes at room temperature. Primary antibodies (listed in Methods Table 1) were diluted in blocking buffer and incubated overnight at 4° C. Slides were washed in PBS and incubated with secondary antibody for one hour at room temperature, and coverslips were mounted using Fluoromount-G (Southern Biotech). Confocal images were captured on a Nikon A1Rsi inverted confocal microscope.
In assay [2] the test system is hPSC-derived foregut spheroids. The assay can be described thus: Fundus specification protocol: Wnt signaling at days 6-9 of gastric organoid differentiation, qPCR. The following applies: Wnt3a at 100 ng/mL and 500 ng/mL. Format: cell-based, human. The method, then:
Next, the function of Wnt signaling in the regulation of fundus-antrum patterning at days 6-9 of the gastric organoid differentiation protocol was tested. Addition of Wnt3a (at 100 ng/mL and 500 ng/mL) had no effect on spheroid gene expression, but it […] expression of the Wnt target gene Axin2. Thus, the effects of the small molecule CHIR99021 (CHIR; 2 uM) were tested. CHIR99021 stimulates Wnt signaling in a receptor-independent fashion.
Analysis was performed using the ΔΔCT method.

[3] abbreviates: DE cultures after three days, even in the presence of WNT/FGF.

B1: Noggin: BMP antagonist / BMP inhibitor (R&D Systems) (protein, UniProt Q13253 28-232, looked up)
Noggin: QHYLHIRPAPSDNLPLVDLIEHPDPIFDPKEKDLNETLLRSLLGGHYDPGFMATSPPEDRPGGGGGAAGGAEDLAELDQLLRQRPSGAMPSEIKGLEFSEGLAQGKKQRLSKKLRRKLQMWLWSQTFCPVLYAWNDLGSRFWPRYVKVGSCFSKRSCSVPEGMVCKPSKSVHLTVLRWRCQRRGGQRCGWIPIQYPIISECKCSC
B1: in assay [1] (setting [3]), the CDX2 expression entry is “repressed” and the “foregut marker SOX2 expression” value is given as “induced”. Further, the “BMP target genes MSX1/2, qPCR” value in assay [1] (response to noggin) is reported as “suppressed”.

B2: Wnt3a: recombinant WNT3A, Wnt ligand (R&D Systems) (protein, UniProt P56704 19-352, looked up)
Protein Wnt-3a: SYPIWWSLAVGPQYSSLGSQPILCASIPGLVPKQLRFCRNYVEIMPSVAEGIKIGIQECQHQFRGRRWNCTTVHDSLAIFGPVLDKATRESAFVHAIASAGVAFAVTRSCAEGTAAICGCSSRHQGSPGKGWKWGGCSEDIEFGGMVSREFADARENRPDARSAMNRHNNEAGRQAIASHMHLKCKCHGLSGSCEVKTCWWSQPDFRAIGDFLKDKYDSASEMVVEKHRESRGWVETLRPRYTYFKVPTERDLVYYEASPNFCEPNPETGSFGTRDRTCNVSSHGIDGCDLLCCGRGHNARAERRREKCRCVFHWCCYVSCQECTRVYDVHTCK
Regarding B2, in assay [2], the “effect on spheroid gene expression” value is given as “no effect” and the “expression of the Wnt target gene Axin2” value is on record as “did induce”.
